Molecular target: A/Puerto Rico/8/1934 hemagglutinin with an N-terminal sfGFP, GCN4-pII trimerization motif and Strep-tag II (influenza A virus A/Puerto Rico/8/1934)
Assay: negative stain electron microscopy

A/Puerto Rico/8/1934 hemagglutinin with an N-terminal sfGFP, GCN4-pII trimerization motif and Strep-tag II
stoichiometry N: 3
